Assay results as given in US20230330254A1 (Regeneron, published 2023).
Like-named read-outs stand apart in the source and are kept apart here.

T1: full-length human glucagon-like peptide 2 receptor on HEK293/CRE-Luc/hGLP2R cells (human, UniProt O95838 1-553)
T1 sequence (looked up): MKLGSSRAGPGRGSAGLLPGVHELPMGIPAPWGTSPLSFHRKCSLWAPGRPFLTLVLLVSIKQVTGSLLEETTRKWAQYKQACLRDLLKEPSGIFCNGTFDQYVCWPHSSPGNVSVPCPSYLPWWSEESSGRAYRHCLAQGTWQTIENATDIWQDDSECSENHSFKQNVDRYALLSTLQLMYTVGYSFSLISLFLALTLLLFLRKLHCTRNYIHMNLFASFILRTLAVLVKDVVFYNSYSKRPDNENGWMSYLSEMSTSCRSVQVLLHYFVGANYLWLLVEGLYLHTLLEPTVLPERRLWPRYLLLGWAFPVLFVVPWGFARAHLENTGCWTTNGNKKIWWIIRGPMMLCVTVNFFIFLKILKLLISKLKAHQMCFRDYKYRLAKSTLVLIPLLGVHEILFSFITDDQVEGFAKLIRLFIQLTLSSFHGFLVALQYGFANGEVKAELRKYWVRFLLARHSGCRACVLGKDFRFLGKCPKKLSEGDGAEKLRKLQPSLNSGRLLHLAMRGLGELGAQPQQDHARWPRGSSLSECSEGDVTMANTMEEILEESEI

T2: full-length human gastric inhibitory polypeptide receptor on HEK293/CRE-Luc/hGIPR cells (human, UniProt P48546 22-466)
T2 sequence (looked up): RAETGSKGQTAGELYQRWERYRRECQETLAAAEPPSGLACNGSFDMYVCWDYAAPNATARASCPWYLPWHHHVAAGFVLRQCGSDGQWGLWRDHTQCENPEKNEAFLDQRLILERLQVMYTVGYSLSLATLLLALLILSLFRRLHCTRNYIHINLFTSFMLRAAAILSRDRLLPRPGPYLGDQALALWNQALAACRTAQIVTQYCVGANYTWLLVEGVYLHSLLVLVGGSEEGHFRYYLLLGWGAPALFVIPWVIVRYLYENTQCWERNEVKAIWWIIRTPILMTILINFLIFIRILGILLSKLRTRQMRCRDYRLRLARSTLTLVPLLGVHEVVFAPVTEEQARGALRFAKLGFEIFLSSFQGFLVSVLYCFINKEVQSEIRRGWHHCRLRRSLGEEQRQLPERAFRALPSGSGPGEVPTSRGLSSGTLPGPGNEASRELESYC

T3: full-length mouse GLP1R on HEK293/CRE-Luc/mGLP1R cells (mouse, UniProt O35659 22-463)
T3 construct: whole, on cells
T3 sequence (looked up): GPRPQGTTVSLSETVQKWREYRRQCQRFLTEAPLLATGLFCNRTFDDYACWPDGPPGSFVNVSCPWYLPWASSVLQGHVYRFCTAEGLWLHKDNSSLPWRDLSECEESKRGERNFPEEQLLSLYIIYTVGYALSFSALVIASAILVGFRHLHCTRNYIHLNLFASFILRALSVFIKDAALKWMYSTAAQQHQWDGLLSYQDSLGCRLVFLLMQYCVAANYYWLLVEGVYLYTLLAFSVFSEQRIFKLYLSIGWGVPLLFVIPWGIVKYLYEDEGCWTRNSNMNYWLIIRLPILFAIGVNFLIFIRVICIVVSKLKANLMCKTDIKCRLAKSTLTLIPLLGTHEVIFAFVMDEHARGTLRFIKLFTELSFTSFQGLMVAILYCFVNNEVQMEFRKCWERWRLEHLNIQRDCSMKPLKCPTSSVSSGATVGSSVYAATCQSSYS


Assays:
[1] = target: T4, full-length human GLP1R on HEK293/CRE-Luc/hGLP1R cells (human, UniProt P43220 24-463); experiment: cell-based or functional assay
[2] = target: human GLP1R on PathHunter eXpress GLP1R CHO-K1 b-Arrestin GPCR cells (human, UniProt P43220 24-463); experiment: cell-based or functional assay
[3] = target: T4, full-length human GLP1R on …; experiment: flow cytometry, hGLP1R cells
[4] = target: T4, full-length human GLP1R on …; experiment: flow cytometry, hGLP1R cells; remark: listed apart in the source
[5] = target: T1, full-length human glucagon-like peptide …; experiment: cell-based or functional assay
[6] = target: T5, full-length cynomolgus GLP1R on HEK293/CRE-Luc/mfGLP1R cells (cynomolgus, UniProt F8V479 24-463); experiment: cell-based or functional assay
[7] = target: T2, full-length human gastric inhibitory …; experiment: cell-based or functional assay
[8] = target: T4, full-length human GLP1R on …; experiment: cell-based or functional assay; remark: listed apart in the source
[9] = target: T6, full-length human glucagon receptor on HEK293/CRE-Luc/hGCGR cells (human, UniProt P47871 26-477); experiment: cell-based or functional assay
[10] = target: T4, full-length human GLP1R on …; experiment: cell-based or functional assay; remark: listed apart in the source
[11] = target: T5, full-length cynomolgus GLP1R on …; experiment: flow cytometry, mfGLP1R cells
[12] = target: T5, full-length cynomolgus GLP1R on …; experiment: flow cytometry, mfGLP1R cells; remark: listed apart in the source
[13] = target: T7, N-terminal ectodomain of human GLP1R expressed with a myc-myc hexahistidine tag (human, UniProt P43220 24-145, limits assumed); experiment: SPR, captured via anti-hFc, 25 C
T7 construct: extracellular domain; also called hGLP1R-MMH; hGLP1R.mmh

[14] = target: T3, full-length mouse GLP1R on …; experiment: flow cytometry, mGLP1R cells
[15] = target: T1, full-length human glucagon-like peptide …; experiment: cell-based or functional assay; remark: listed apart in the source
[16] = target: T5, full-length cynomolgus GLP1R on …; experiment: cell-based or functional assay; remark: listed apart in the source
[17] = target: T2, full-length human gastric inhibitory …; experiment: cell-based or functional assay; remark: listed apart in the source
[18] = target: T4, full-length human GLP1R on …; experiment: cell-based or functional assay; remark: listed apart in the source
[19] = target: T6, full-length human glucagon receptor on …; experiment: cell-based or functional assay; remark: listed apart in the source
[20] = target: Myc-tagged full length human GLP1R on HEK293/Myc-hGLP1R/Cre-Luc cells (human, UniProt P43220 24-463); experiment: cell-based or functional assay
[21] = target: T4, full-length human GLP1R on …; experiment: cell-based or functional assay; remark: listed apart in the source
[22] = target: T4, full-length human GLP1R on …; experiment: cell-based or functional assay; remark: listed apart in the source

T7 sequence (P43220 24-145 limits assumed): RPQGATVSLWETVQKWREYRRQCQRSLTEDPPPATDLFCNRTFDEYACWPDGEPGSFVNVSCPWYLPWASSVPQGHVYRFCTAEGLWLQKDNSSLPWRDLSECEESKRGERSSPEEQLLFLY
T6 sequence (P47871 26-477): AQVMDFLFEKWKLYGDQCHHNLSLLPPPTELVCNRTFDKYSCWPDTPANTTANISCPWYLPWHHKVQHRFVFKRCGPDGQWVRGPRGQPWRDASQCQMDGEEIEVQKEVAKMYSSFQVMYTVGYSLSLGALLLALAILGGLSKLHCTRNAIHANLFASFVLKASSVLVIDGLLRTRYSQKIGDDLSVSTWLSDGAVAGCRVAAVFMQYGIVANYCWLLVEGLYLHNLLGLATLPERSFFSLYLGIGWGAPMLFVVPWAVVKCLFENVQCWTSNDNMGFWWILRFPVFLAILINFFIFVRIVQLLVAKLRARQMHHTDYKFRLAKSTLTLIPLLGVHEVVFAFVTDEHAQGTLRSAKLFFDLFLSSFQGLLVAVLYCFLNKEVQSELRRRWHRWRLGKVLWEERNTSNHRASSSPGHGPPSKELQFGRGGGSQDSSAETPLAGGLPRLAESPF

Binder | CRE-luc EC50 [1] [nM] | CRE-luc Emax (% GLP-1) [1] [%] | b-arrestin 2 recruitment EC50 [2] [nM] | b-arrestin 2 recruitment Emax (% GLP-1) [2] [%] | CRE-luc EC50 [5] [nM] | CRE-luc EC50 [6] [nM] | CRE-luc EC50 [7] [nM] | CRE-luc EC50 [8] [nM] | CRE-luc EC50 [9] [nM] | CRE-luc EC50 [10] [nM] | CRE-luc Relative Potency (% M2361 EC50) [10] [%] | CRE-luc Relative Signal:Noise (% M2361) [10] [%] | CRE-luc S/N [10] [fold] | CRE-luc EC50 [15] [nM] | CRE-luc EC50 [16] [nM] | CRE-luc EC50 [17] [nM] | CRE-luc EC50 [18] [nM] | CRE-luc EC50 [19] [nM] | also measured
REGN7990-M3190 (antibody, human IgG4 S228P, kappa, V domains shown, linker-payload M3190 (LP11) on Gln 3 of the N-terminal Q-tag LLQGSG, antibody-tethered drug conjugate; also called REGN7990 ATDC; anti-GLP1R mAb3-LP11) VH: not shown VL: DIQMTQSPSSVSASVGDRVTITCRASQGINSWLAWYQQKPGKAPKLLIYAASSLQSGVPSRFSGSGSGTDFTLTISSLQPEDFATYYCHQADSFPYTFGQGTKLEIKR | 0.236 | 90.9 | 17.2 | 103 | > 200 | 0.0772 | > 200 | 0.0724 | > 200 | 0.0601 | 27 | 135 | 86.9 | > 30 | 0.257 | > 30 | 0.0637 | > 30 | EC50 [3]: 9.81 nM; Flow S/N [3]: 117 fold; EC50 [4]: 30.5 nM; Flow S/N [4]: 231 fold; EC50 [11]: 4.79 nM; Flow S/N [11]: 103 fold; EC50 [12]: 29.9 nM; Flow S/N [12]: 486 fold; 90 nM hGLP1R.mmh Bound (RU) [13]: 22.8 RU; Kd [13]: 2.01 nM; koff [13]: 0.000785 s⁻¹; kon [13]: 390000 M⁻¹ s⁻¹; t1/2 [13]: 14.7 min; EC50 [14]: 91.5 nM; Flow S/N [14]: 29.3 fold
XXGTXTSDXX (CapAib-E*-G-T-F*-T-S-D-AA2-AA1: CapAib = 3-((2-(1H-imidazol-5-yl)ethyl)amino)-2,2-dimethyl-3-oxopropanoic acid; E* = (S)-2-amino-3-(2H-tetrazol-5-yl)propanoic acid; F* = (S)-2-amino-3-(2-fluorophenyl)-2-methylpropanoic acid; AA2 = biphenylalanine derivative carrying the amino-PEG8-triazole linker; AA1 = (S)-2-amino-5-(3,5-dimethylphenyl)pentanamide) [GLP1R agonist linker-payload LP11 (NH2-PEG8-triazole-P8)] | 0.0168 | 93.9 | 2.48 | 108 | > 200 | 0.0463 | > 200 | 0.0258 | > 200 | 0.0369 | 44 | 96.4 | 62 | > 30 | 0.202 | > 30 | 0.0601 | > 30 | CRE-luc EC50 [20]: 0.016 nM; CRE-luc EC50 (experiment A) [21]: 0.0161 nM; CRE-luc Relative Potency (% P8 EC50) (experiment A) [21]: 33.1%; CRE-luc S/N (experiment A) [21]: 74.5 fold; cAMP EC50 [22]: 0.318 nM
